From patent publication US8945359B2, “Flavin-binding glucose dehydrogenase” (Ikeda Food Research Co., Ltd., priority 2011, dated 2015)
Like-named read-outs stand apart in the source and are kept apart here.

How the values were obtained:
[1] = tested on: OC[C@H]1OC(O)[C@H](O)[C@@H](O)[C@@H]1O; assay: purified protein, by the assay type; settings: other: BotGLD, D-glucose varied, Hanes-Woolf plot, DCIP/1-m-PMS, pH 6.0, 37° C.
Protocol: Each solution was mixed according to the following procedures to measure the absorbance, thereby examining GLD activity.
Then, 0.05 mL of an enzyme sample was added to the mixture to start a reaction. The amount (ΔA600) of reduction in light absorbance per minute at 600 nm along with the progress of the enzymatic reaction was measured for 5 minutes from the start of the reaction to calculate GLD activity from the straight line part according to the equation 1. At this time, in the measurement of GLD activity, the amount of an enzyme reducing 1 μmol of DCIP at 37° C. and a pH of 6.0 for one minute was defined as 1 U.
In the above formula, 3.0 represents the amount (mL) of reaction reagent+oxygen solution, 10.8 represents the molar absorption coefficient (mM^−1 cm^−1) of DCIP at a pH of 6.0, 1.0 represents the optical path length (cm) of a cell, 0.05 represents the amount (mL) of the oxygen solution, ΔA600 blank represents a reduction in the amount of light absorbance per minute at 600 nm when the solution used to dilute the enzyme is added in place of the enzyme solution to start a reaction, and df represents a dilution ratio.

[2] = tested on: Ovulinia azaleae NBRC6610 flavin-binding glucose dehydrogenase OvGLD (B), purified, wild type, SEQ ID NO: 6 (without signal sequence SEQ ID NO: 14); assay: Inhibitive effect of 1,10-phenanthroline, OvGLD; format: biochemical; settings: methanol only = 0%
Protocol: (§1) The enzymatic activity of each of the purified GLDs (A) to (F) was measured when 1,10-phenanethroline dissolved in methanol was added such that its final concentration was 2 mM, 5 mM or 10 mM in the above method for measuring enzymatic activity. The inhibitive effect obtained when only methanol was added was defined as 0% to find the inhibitive effect of 1,10-phenanthroline at each concentration. The obtained results are shown collectively as the inhibitive effect of 1,10-phenanthroline in Table 4.

[3] = tested on: Ciborinia camelliae NBRC103663 flavin-binding glucose dehydrogenase CiGLD (F), purified from A. oryzae NS4 with CiGLD-Atsig modified gene, SEQ ID NO: …; assay: Inhibitive effect of 1,10-phenanthroline, CiGLD; format: biochemical; settings: methanol only = 0%
Protocol: as §1

[4] = biological target: T1, Botrytis tulipae NBRC5896 flavin-binding glucose dehydrogenase BotGLD (E), purified from A. oryzae NS4 with BotGLD-Atsig modified gene, SEQ ID NO: 4 (without signal sequence SEQ ID NO: 12) (Botrytis tulipae, UniProt A0A4Z1FFJ6); assay: Inhibitive effect of 1,10-phenanthroline, BotGLD; format: biochemical
T1 construct: up to three extra N-terminal residues possible
Protocol: as §1

[5] = tested on: Sclerotinia sclerotiorum NBRC103652 flavin-binding glucose dehydrogenase ScGLD (C), purified, wild type; assay: Inhibitive effect of 1,10-phenanthroline, ScGLD; format: biochemical; settings: methanol only = 0%
Protocol: After the column was washed with the buffer solution C2, a protein was eluted with linear gradient of a buffer solution D3 (500 mM potassium phosphate buffer solution, pH 7.0) in the buffer solution C2.
as §1

[6] = tested on: Botrytis fabae NBRC7171 flavin-binding glucose dehydrogenase BoGLD (D), purified, wild type; assay: Inhibitive effect of 1,10-phenanthroline, BoGLD; format: biochemical; settings: methanol only = 0%
Protocol: as §1

[7] = tested on: Dumontinia tuberosa NBRC30254 flavin-binding glucose dehydrogenase DuGLD (A), purified, wild type, SEQ ID NO: 2 (without signal sequence SEQ ID NO: 10); assay: Inhibitive effect of 1,10-phenanthroline, DuGLD; format: biochemical; settings: methanol only = 0%
Protocol: as §1

[8] = Substrate specificity; format: biochemical; settings: 333 mM
Description: As these substrates, maltose, D-galactose, D-fructose, sorbitol, lactose, sucrose, D-xylose, D-mannose and trehalose were used. When the activity to D-glucose was defined as 100%, the relative activity to each substrate was found. These relative activities are described collectively as the substrate specificity in Table 2.

[9] = Temperature characteristics; format: biochemical
Protocol: The relative activity at each temperature was calculated when the activities at 30 and 45° C. were each defined as 100%. In this case, each sample was measured twice in the same condition. An average of the measured relative activities is collectively described in Table 3.

[10] = substrate D-fructose, D-glucose = 100%
[11] = substrate D-galactose, D-glucose = 100%
[12] = substrate D-glucose (defined as 100%)
[13] = substrate D-mannose, D-glucose = 100%
[14] = substrate D-xylose, D-glucose = 100%
[15] = substrate lactose, D-glucose = 100%
[16] = substrate maltose, D-glucose = 100%
[17] = substrate sorbitol, D-glucose = 100%
[18] = substrate sucrose, D-glucose = 100%
[19] = substrate trehalose, D-glucose = 100%

Molecule: Botrytis tulipae NBRC5896 flavin-binding glucose dehydrogenase BotGLD (E), purified from A. oryzae NS4 with BotGLD-Atsig modified gene, SEQ ID NO: 4 (without signal sequence SEQ ID NO: 12) (Botrytis tulipae)
- Km [1]: 36.2 mM

Molecule: c1cnc2c(c1)ccc1cccnc12 [1,10-phenanthroline]
- Inhibitive effect ([2]; final concentration 2 mM): 34.1%
- Inhibitive effect ([2]; final concentration 5 mM): 51.7%
- Inhibitive effect ([2]; final concentration 10 mM): 65.1%
- Inhibitive effect ([3]; final concentration 2 mM): 6.34%
- Inhibitive effect ([3]; final concentration 5 mM): 14.7%
- Inhibitive effect ([3]; final concentration 10 mM): 32.7%
- inhibition at 2000 µM ([4]; BotGLD, final concentration 2 mM, methanol only = 0%, read-out: Inhibitive effect): 33.5%
- inhibition at 5000 µM ([4]; BotGLD, final concentration 5 mM, methanol only = 0%): 38.6%
- inhibition at 10000 µM ([4]; BotGLD, final concentration 10 mM, methanol only = 0%): 75.4%
- inhibition at 2000 µM ([4]; DuGLD, OvGLD and BotGLD together, 2 mM, read-out: Inhibitive effect (summary range)): 20 to 34%
- Inhibitive effect ([5]; final concentration 2 mM): 5.28%
- Inhibitive effect ([5]; final concentration 5 mM): 18.4%
- Inhibitive effect ([5]; final concentration 10 mM): 32.3%
- Inhibitive effect ([6]; final concentration 2 mM): 10.4%
- Inhibitive effect ([6]; final concentration 5 mM): 15.9%
- Inhibitive effect ([6]; final concentration 10 mM): 28.5%
- Inhibitive effect ([7]; final concentration 2 mM): 20.4%
- Inhibitive effect ([7]; final concentration 5 mM): 30.1%
- Inhibitive effect ([7]; final concentration 10 mM): 42.3%

B1: CiGLD: purified enzyme of GLD derived from the genus Ciborinia, produced in A. oryzae NS4 carrying the CiGLD-Atsig modified gene (protein, listed as Ciborinia camelliae)
chain: MHRFLPAFVLASLAAASQDVALTYDYVIVGAGTSGLVTAHRLSELADVTVAVIEAGESNYNNANVTNPAGYGLAFGTQIDWQYQTTVQEYGGDVTKVIRAGKSIGGTSTINGMAYTRAEDVQVDAWEALGNEGWNWANMLPYYKKSQTLQVPTEAQAALGAHYDPASNGYEGPLKVGWVNAMATDDFHTILNETYAALDVPANNDVNTGKMIGYTRYPATYDRTLNMRCDAGRAYYYPIQNRTNLHLYPNTMAQRLTWKSGASTPTAEGVEVLADGETTPYTIHASSEVIISAGALGSPLVLEHSGIGNPAILEKYNISVVVDLPTVGENLQDQTNTALGFDTSSDNVTYSAVSTYLGYPSAAQMFGSDFKTVAAEILAALPSYADKVAIASGNVTKAADLLKFFKIQYELIFSATSPVPVAELLVTPVGTTYSAEFWSLLPFSRGNIHISSATPGVAATINPNYFMLDYDMISQVRSAKYIREIFATTPLSPLVGSETTPGLDSIASAATEAEWAAWVKTAYRSNFHPVATAAMMPREIGGVVDSRLKVYGTTNVRVVDASILPMQVCGHLTSTLYAMSERAADLIKEDM
modifications: CDS (1)..(1776); sig_peptide (1)..(57)
notes: purified enzyme of GLD derived from the genus Ciborinia, produced in A. oryzae NS4 carrying the CiGLD-Atsig modified gene
- Relative activity [8, 10]: 0.49%
- Relative activity [8, 11]: 10%
- Relative activity [8, 12]: 100%
- Relative activity [8, 13]: 23%
- Relative activity [8, 14]: 25%
- Relative activity [8, 15]: 0.21%
- Relative activity [8, 16]: 6.4%
- Relative activity [8, 17]: 0.38%
- Relative activity [8, 18]: 0.40%
- Relative activity [8, 19]: 20%

B2: DuGLD: purified enzyme of flavin-binding GLD derived from the genus Dumontinia (Dumontinia tuberosa NBRC30254) (protein, listed as Dumontinia tuberosa)
chain: MNHLLPAFALASLAVASPDLSLTYDYVIVGAGTSGLVIANRLSELNVTVAVIEAGDSGYNNVNVTNPAGYGLAFGTDIDWAYQSTNQKYAGNATQTLRAGKVIGGTSTINGMAYTRAEDVQIDAWAALGNDGWNWENLFPYYKKSQTLQAPTAAQAEAGATYDPSANGFDGPLKVGWLKSLANDDFHIILNDTYASLGIFANEDVNTGRMVGYNRYPVTYDETLNVRHDAGRAYYYPIANRTNLHLYPNTMAQRLTWKSGADVPTANGVEVLTNNSSIPYTISANSEVILSAGALASPLLLELSGIGNPSLLNKYNIPVVVDLPTVGENLQDQTNNGLAYTVSKDASFSGVGTLVTYPSAAQVFGSEIQNISAHVLDSLPSYAAQVSAASGNVTKAADLLEFFKIQHDLIFSTTHPVPMAEILVIPSATGFKSEYWALLPFARGNIHITSSIPGTPAAINPNYYMLDWDITSQITTAKFIRSVYATSPLSTLVGSETKPGLETLSANATEAEWSEWIKAGYRPNFHPVSTAAMMPREVGGVVDSRLKVYGTSNVRVVDASVLPMQVSGHLVSTLYAVAERAADLIKEDI
modifications: CDS (1)..(1770); sig_peptide (1)..(57)
- Relative activity [8, 10]: < 0.1%
- Relative activity [8, 11]: 0.28%
- Relative activity [8, 12]: 100%
- Relative activity [8, 13]: 1.7%
- Relative activity [8, 14]: 10%
- Relative activity [8, 15]: < 0.1%
- Relative activity [8, 16]: 0.54%
- Relative activity [8, 17]: < 0.1%
- Relative activity [8, 18]: < 0.1%
- Relative activity [8, 19]: 1.0%
- Relative activity ([9]; 10° C., substrate 10 mM, 100% at 30° C.): 60.6%
- Relative activity ([9]; 10° C., substrate 10 mM, 100% at 45° C.): 60.1%
- Relative activity ([9]; 10° C., substrate 50 mM, 100% at 30° C.): 56.0%
- Relative activity ([9]; 10° C., substrate 50 mM, 100% at 45° C.): 50.5%
- Relative activity ([9]; 20° C., substrate 10 mM, 100% at 30° C.): 81.5%
- Relative activity ([9]; 20° C., substrate 10 mM, 100% at 45° C.): 80.7%
- Relative activity ([9]; 20° C., substrate 50 mM, 100% at 30° C.): 77.9%
- Relative activity ([9]; 20° C., substrate 50 mM, 100% at 45° C.): 70.3%
- Relative activity ([9]; 30° C., substrate 10 mM, 100% at 30° C.): 100%
- Relative activity ([9]; 30° C., substrate 10 mM, 100% at 45° C.): 99.1%
- Relative activity ([9]; 30° C., substrate 50 mM, 100% at 30° C.): 100%
- Relative activity ([9]; 30° C., substrate 50 mM, 100% at 45° C.): 90.2%
- Relative activity ([9]; 40° C., substrate 10 mM, 100% at 30° C.): 108%
- Relative activity ([9]; 40° C., substrate 10 mM, 100% at 45° C.): 107%
- Relative activity ([9]; 40° C., substrate 50 mM, 100% at 30° C.): 109%
- Relative activity ([9]; 40° C., substrate 50 mM, 100% at 45° C.): 98.6%
- Relative activity ([9]; 45° C., substrate 10 mM, 100% at 30° C.): 101%
- Relative activity ([9]; 45° C., substrate 10 mM, 100% at 45° C.): 100%
- Relative activity ([9]; 45° C., substrate 50 mM, 100% at 30° C.): 111%
- Relative activity ([9]; 45° C., substrate 50 mM, 100% at 45° C.): 100%
- Relative activity ([9]; 50° C., substrate 10 mM, 100% at 30° C.): 87.5%
- Relative activity ([9]; 50° C., substrate 10 mM, 100% at 45° C.): 86.7%
- Relative activity ([9]; 50° C., substrate 50 mM, 100% at 30° C.): 105%
- Relative activity ([9]; 50° C., substrate 50 mM, 100% at 45° C.): 94.4%

B3: BotGLD: purified enzyme of GLD derived from Botrytis tulipae, produced in A. oryzae NS4 carrying the BotGLD-Atsig modified gene (protein, listed as Botrytis tulipae)
chain: MYRLLSTFALASLAAASTDSTLTYDYIVIGAGTSGLVIANRLSELNVTVAVIEAGDSGYNNPNVTNPSGYGLSFGTDIDWAYQSTNQKYAGNTSQVLRAGKIIGGTSTINGMAYTRAEDVQIDAWAAIGNDGWNWANLFPYYKKSQTLEIPTTAQVEAGAAYDASANGFDGPLKVGWLNSLEDTSNFHTTLNDTFAGLGVPSNDDVNTGRMVGYSRYPATYDRTLNVRHDAGRAYYYPIANRTNLHLYPNTMAQRLTWTSDANTPTANGVEVLSNNSSIPYTIHANSEVILSAGALASPLLLELSGIGNPSILSKHNISVVVDLPTVGENLQDQTNTGLAYNSSGNTSFSGAGTLVAYPSAAQLFGSEVQKISAHVLQSLPSYAAQVSAASGNITKAADLLKFFKIQHDLIFSTTHPVPMAEILISPSATAFSSEYWALLPFARGSIHITSSVAGTPAAINPNYFMFDWDVTSQIATAKFIRSIYAASPLSSFVGSETKPGLNKVSANATEAEWFDWVKTAYRSNFHPVSTAAMMPREIGGVVDSRLKVYGTANVRVVDASILPMQVSGHLVSTLYAVAERAADLIKEDI
modifications: CDS (1)..(1773); sig_peptide (1)..(57)
notes: purified enzyme of GLD derived from Botrytis tulipae, produced in A. oryzae NS4 carrying the BotGLD-Atsig modified gene
- Relative activity [8, 10]: < 0.1%
- Relative activity [8, 11]: 0.76%
- Relative activity [8, 12]: 100%
- Relative activity [8, 13]: 8.2%
- Relative activity [8, 14]: 20%
- Relative activity [8, 15]: < 0.1%
- Relative activity [8, 16]: 1.5%
- Relative activity [8, 17]: < 0.1%
- Relative activity [8, 18]: < 0.1%
- Relative activity [8, 19]: 10%
